According to paper PMC6470172, “Conformational plasticity in the KcsA potassium channel pore helix revealed by homo-FRET studies” (Scientific Reports, 2019):

Legend:
[1] = biological target: the molecule itself; assay: SDS-PAGE of the tetramer; 13.5% SDS-PAGE of the detergent-solubilised protein; 20 mM Hepes pH 7 or 10 mM succinic acid pH 4, 5 mM DDM, 200 mM Cs+, Rb+, K+ or Na+, or TBA+
[2] = biological target: the molecule itself; assay: FRET or BRET; homo-FRET between the W67 residues of the subunits, read by steady-state and time-resolved fluorescence anisotropy; 6 uM protein (monomer based), 5 mM DDM, pH 7 or pH 4, saturating monovalent cations or TBA+, room temperature

Protein	stoichiometry N [1]	binding result [2]
KcsA W26,68,87,113F quadruple mutant channel (W67 KcsA) (natural protein, S. lividans, UniProt P0A334 1-160, looked up, KcsA potassium channel cloned from S. lividans; single Trp (W67) left per subunit; called full-length in the discussion; Homotetramer; also called KcsA W67) MPPMLSGLLARLVKLLLGRHGSALHFRAAGAATVLLVIVLLAGSYLAVLAERGAPGAQLITYPRALWFSVETATTVGYGDLYPVTLFGRLVAVVVMVAGITSFGLVTAALATFFVGREQERRGHFVRHSEKAAEEAYTRTTRALHERFDRLERMLDDNRR	4	
KcsA W26,68,87,113F E71A mutant channel (W67 E71A KcsA) (natural protein, S. lividans, UniProt P0A334 1-160, looked up, KcsA potassium channel cloned from S. lividans; also called E71A W67 KcsA; E71A W67) MPPMLSGLLARLVKLLLGRHGSALHFRAAGAATVLLVIVLLAGSYLAVLAERGAPGAQLITYPRALWFSVATATTVGYGDLYPVTLFGRLVAVVVMVAGITSFGLVTAALATFFVGREQERRGHFVRHSEKAAEEAYTRTTRALHERFDRLERMLDDNRR		binds
